Source: paper PMC2814896

B1: OCT1 (hOCT1) (Homo sapiens) (protein)
chain: MPTVDDILEQVGESGWFQKQAFLILCLLSAAFAPICVGIVFLGFTPDHHCQSPGVAELSQRCGWSPAEELNYTVPGLGPAGEAFLGQCRRYEVDWNQSALSCVDPLASLATNRSHLPLGPCQDGWVYDTPGSSIVTEFNLVCADSWKLDLFQSCLNAGFLFGSLGVGYFADRFGRKLCLLGTVLVNAVSGVLMAFSPNYMSMLLFRLLQGLVSKGNWMAGYTLITEFVGSGSRRTVAIMYQMAFTVGLVALTGLAYALPHWRWLQLAVSLPTFLFLLYYWCVPESPRWLLSQKRNTEAIKIMDHIAQKNGKLPPADLKMLSLEEDVTEKLSPSFADLFRTPRLRKRTFILMYLWFTDSVLYQGLILHMGATSGNLYLDFLYSALVEIPGAFIALITIDRVGRIYPMAMSNLLAGAACLVMIFISPDLHWLNIIIMCVGRMGITIAIQMICLVNAELYPTFVRNLGVMVCSSLCDIGGIITPFIVFRLREVWQALPLILFAVLGLLAAGVTLLLPETKGVALPETMKDAENLGRKAKPKENTIYLKVQTSEPSGT
B2: OCT2 (hOCT2) (Homo sapiens) (protein)
chain: MPTTVDDVLEHGGEFHFFQKQMFFLLALLSATFAPIYVGIVFLGFTPDHRCRSPGVAELSLRCGWSPAEELNYTVPGPGPAGEASPRQCRRYEVDWNQSTFDCVDPLASLDTNRSRLPLGPCRDGWVYETPGSSIVTEFNLVCANSWMLDLFQSSVNVGFFIGSMSIGYIADRFGRKLCLLTTVLINAAAGVLMAISPTYTWMLIFRLIQGLVSKAGWLIGYILITEFVGRRYRRTVGIFYQVAYTVGLLVLAGVAYALPHWRWLQFTVSLPNFFFLLYYWCIPESPRWLISQNKNAEAMRIIKHIAKKNGKSLPASLQRLRLEEETGKKLNPSFLDLVRTPQIRKHTMILMYNWFTSSVLYQGLIMHMGLAGDNIYLDFFYSALVEFPAAFMIILTIDRIGRRYPWAASNMVAGAACLASVFIPGDLQWLKIIISCLGRMGITMAYEIVCLVNAELYPTFIRNLGVHICSSMCDIGGIITPFLVYRLTNIWLELPLMVFGVLGLVAGGLVLLLPETKGKALPETIEEAENMQRPRKNKEKMIYLQVQKLDIPLN

Legend:
[1] = substrate: N=C(N)NCCCCN; assay: saturable uptake in hOCT1-HEK cells; format: cell-based, Homo sapiens
[2] = substrate: N=C(N)NCCCCN; assay: radiolabeled uptake in hOCT2-HEK293 vs wild-type HEK293 cells; format: cell-based, Homo sapiens

Row | Protein | Km [1] [mM] | Km [2] [mM]
1 | B1 | 30 | 
2 | B2 |  | 2
